What is called Km is the substrate concentration at which the rate is half of its maximum. For orientation: kcat means the maximal rate divided by the concentration of active sites. As usually defined, the kcat/Km is the turnover number divided by the Michaelis constant.

Among the data in article PMC7142073, “Acclimation of bacterial cell state for high-throughput enzyme engineering using a DmpR-dependent transcriptional activation system” (Scientific Reports, 2020) are Km, kcat and kcat/Km values, retold here.

Substrate in this data set: N[C@@H](Cc1ccc(O)cc1)C(=O)O
Description: purified protein. Type of data set: biochemical, Symbiobacterium sp. SC-1. To be noted: 50 mM potassium phosphate, 50 µM PLP; pH 8.0; 60.0 °C.

B1: thermostable TPL (TTPL) (Symbiobacterium sp. SC-1) (protein)
chain: MQRPWAEPYKIKAVEPIRMTTREYREQAIREAGYNTFLLRSEDVYIDLLTDSGTNAMSDRQWGALMMGDEAYAGARSFFRLEEAVREIYGFKYVVPTHQGRGAEHLISRILIKPGDYIPGNMYFTTTRTHQELQGGTFVDVIIDEAHDPQANHPFKGNVDIAKFEALIDRVGADKIPYINVALTVNMAGGQPVSMANLREVRKVCDRHGIRMWSDATRAVENAYFIKEREEGYQDKPVREILKEMMSYFDGCTMSGKKDCLVNIGGFLAMNEEWILQKAREQVVIFEGMPTYGGLAGRDMEAIAQGIYEMVDDDYIAHRIHQVRYLGEQLLEAGIPIVQPIGGHAVFLDARAFLPHIPQDQFPAQALAAALYVDSGVRAMERGIVSAGRNPQTGEHNYPKLELVRLTIPRRVYTDRHMDVVAYSVKHLWKERDTIRGLRMVYEPPTLRFFTARFEPIS
notes: His-tagged, pSHCE plasmid, expressed in E. coli DH5alpha with pGESS; cloning primer starts … (M-Q-R-P)
As for B1, the Km was determined as 270 ± 10 µM, the kcat was found to be 0.15 ± 0.01 s⁻¹ and the kcat/Km is 550 ± 10 M⁻¹ s⁻¹.
